Measurements from article PMC4956256.

Assays:
[1] = target: TV1.C gp120 monomer (HIV-1 subtype C, strain TV1.C); assay: SEC + other: SDS-PAGE; purified TV1.C gp120; SDS-PAGE under reduced and non-reduced conditions; SEC-HPLC under non-reduced and reduced (otherwise native) conditions
[2] = target: soluble CD4 receptor ligand, CD4-Fc (sCD4) (UniProt P01730); assay: SPR; BIAcore 3000; about 200 RU of sCD4 immobilised directly on a CM5 chip by amine coupling; varying concentrations of gp120 injected at 100 ul/min; 25°C; PBS + 0.1% BSA; 1:1 Langmuir fit

Which stoichiometry N [1] does the source give for TV1.C gp120 monomer (natural protein) here?
Its stoichiometry N is 2.

What about the Kd [2] of the same substance?
Its Kd is 148 nM.

With 1086.C gp120 monomer (natural protein) as the substance, how does the Kd [2] read?
Its Kd is 26.6 nM.
